Data: US20180171024A1

Assays:
[1] = molecular target: HLA-A2 on cells (tumor cell lines, normal primary cells, PBMCs) (human); experiment: flow cytometry, colonic smooth muscle cells 2940, 10 µg/ml
[2] = molecular target: HLA-A2/TyrD-S22 on T2 cells (human); experiment: flow cytometry, T2 cells loaded with TyrD-S22 [..], 10 µg/ml
[3] = molecular target: HLA-A2 on cells (tumor cell lines, normal primary cells, PBMCs) (human); experiment: flow cytometry, astrocytes 1800, 10 µg/ml
[4] = molecular target: HLA-A2 on cells (tumor cell lines, normal primary cells, PBMCs) (human); experiment: flow cytometry, A498 cells, 10 µg/ml
[5] = molecular target: HLA-A2 on cells (tumor cell lines, normal primary cells, PBMCs) (human); experiment: flow cytometry, endothelial cells HUE-1, 10 µg/ml
[6] = molecular target: HLA-A2/TyrD-S6 on T2 cells (human); experiment: flow cytometry, T2 cells loaded with TyrD S6 [..], 10 µg/ml
[7] = molecular target: HLA-A2/NFACT on T2 cells (human); experiment: flow cytometry, T2 cells loaded with NFACT peptide
[8] = molecular target: HLA-A2 on cells (tumor cell lines, normal primary cells, PBMCs) (human); experiment: flow cytometry, H522 cells, 10 µg/ml
[9] = molecular target: HLA-A2/TyrD-S21 on T2 cells (human); experiment: flow cytometry, peptide-loaded T2 cells (10^-5 M), PE anti-mouse IgG
[10] = molecular target: HLA-A2/TyrD-S22 on T2 cells (human); experiment: as above
[11] = molecular target: HLA-A2/TyrD-S20 on T2 cells (human); experiment: as above
[12] = molecular target: HLA-A2/TyrD-S23 on T2 cells (human); experiment: as above
[13] = molecular target: Unloaded T2 (Homo sapiens); experiment: flow cytometry, unloaded T2 cells, PE anti-mouse
[14] = molecular target: HLA-A2 on cells (tumor cell lines, normal primary cells, PBMCs) (human); experiment: flow cytometry, WM-266-4 melanoma cells
[15] = molecular target: HLA-A2/TyrD-S9 on T2 cells (human); experiment: flow cytometry, T2 cells loaded with TyrD S9 [..], 10 µg/ml
[16] = molecular target: HLA-A2/WT1 126-134 complex on T2 cells (human); experiment: flow cytometry, T2 cells loaded with WT1 peptide
[17] = molecular target: HLA-A2 on cells (tumor cell lines, normal primary cells, PBMCs) (human); experiment: flow cytometry, A375 melanoma cells, 10 µg/ml
[18] = molecular target: HLA-A2 on other WT1 negative HLA-A2+ cells (other than 501, A498 and SKMEL; members not named); experiment: flow cytometry on IM-9 cells (WT1 mRNA -)
[19] = molecular target: HLA-A2 on cells (tumor cell lines, normal primary cells, PBMCs) (human); experiment: flow cytometry, Fib cells
[20] = molecular target: HLA-A2 on cells (tumor cell lines, normal primary cells, PBMCs) (human); experiment: flow cytometry, 501A melanoma cells, 10 µg/ml
[21] = molecular target: HLA-A2/TyrD-S16 on T2 cells (human); experiment: flow cytometry, T2 cells loaded with TyrD S16 [..], 10 µg/ml
[22] = molecular target: HLA-A2/PAP 112-120 complex on T2 cells (human); experiment: flow cytometry, T2 cells loaded with PAP112 [..], 10 µg/ml
[23] = molecular target: HLA-A2/WT1 126-134 complex on T2 cells (human); experiment: flow cytometry, T2 cells loaded with WT1 1x10e-4M in DMSO
[24] = molecular target: HLA-A2/154 on T2 cells (human); experiment: flow cytometry, T2 cells loaded with 154 peptide
[25] = molecular target: HLA-A2/TyrD-S1 on T2 cells (human); experiment: flow cytometry, T2 cells loaded with TyrD S1 [..], 10 µg/ml
[26] = molecular target: HLA-A2 on cells (tumor cell lines, normal primary cells, PBMCs) (human); experiment: flow cytometry, 624.38 melanoma cells, 10 µg/ml
[27] = molecular target: HLA-A2/CMV on T2 cells (human); experiment: flow cytometry, T2 cells loaded with CMV peptide
[28] = molecular target: HLA-A2 on cells (tumor cell lines, normal primary cells, PBMCs) (human); experiment: flow cytometry, renal epithelial cells #4100-2, 10 µg/ml
[29] = molecular target: HLA-A2/TyrD-S15 on T2 cells (human); experiment: flow cytometry, T2 cells loaded with TyrD S15 [..], 10 µg/ml
[30] = molecular target: HLA-A2 on cells (tumor cell lines, normal primary cells, PBMCs) (human); experiment: flow cytometry, HEP-G2 cells, 10 µg/ml
[31] = molecular target: HLA-A2/TyrN on T2 cells (human); experiment: flow cytometry, T2 cells loaded with TyrN [..], 10 µg/ml
[32] = molecular target: HLA-A2/TyrD-S5 on T2 cells (human); experiment: flow cytometry, T2 cells loaded with TyrD S5 [..], 10 µg/ml
[33] = molecular target: HLA-A2 on other WT1 negative HLA-A2+ cells (other than 501, A498 and SKMEL; members not named); experiment: flow cytometry on U266 cells (WT1 mRNA -)
[34] = molecular target: HLA-A2/TyrD-S4 on T2 cells (human); experiment: flow cytometry, T2 cells loaded with TyrD S4 [..], 10 µg/ml
[35] = molecular target: HLA-A2 on cells (tumor cell lines, normal primary cells, PBMCs) (human); experiment: flow cytometry, IM-9 cells, 10 µg/ml
[36] = molecular target: HLA-A2 on unloaded T2 cells (human); experiment: flow cytometry, unloaded T2 cells, 10 µg/ml
[37] = molecular target: HLA-A2 on cells (tumor cell lines, normal primary cells, PBMCs) (human); experiment: flow cytometry, 501A melanoma cells, 10 µg/ml; remark: listed apart in the source
[38] = molecular target: HLA-A2/MAGE-A4 230-239 complex on cells (human); experiment: flow cytometry, T2 cells loaded with MAGE-A4 [..], 10 µg/ml
[39] = molecular target: HLA-A2/Tyrosinase369-377 complex on cells (human); experiment: flow cytometry, T2 cells loaded with TyrD [..], 10 µg/ml

In the case of BB7.2 (antibody), the MFI [1] is reported as 563, the MFI relative to background [2] is reported as 464 and the MFI [3] is reported as 590. For the same substance, the MFI [4] was 170, the MFI [5] was 133 and the MFI relative to background [6] was 516. It also gave an MFI [7] of 2720, an MFI [8] of 52.7 and an MFI relative to background [9] of 654. The MFI relative to background [10] was 464, the MFI relative to background [11] was 445 and the MFI relative to background [12] was 443. The MFI [13] was 1050, the MFI [14] was 64 and the MFI relative to background [15] was 768. It also gave an MFI [16] of 2320, an MFI [17] of 174 and an MFI [18] of 727. The GeoMean [19] was 613, the MFI [20] was 760 and the MFI relative to background [21] was 421. It also gave an MFI relative to background [22] of 1170, an MFI [23] of 722 and an MFI [24] of 1920. The MFI relative to background [25] was 596, the MFI [26] was 311 and the MFI [27] was 2400. The MFI [28] was 1620, the MFI relative to background [29] was 642 and the MFI [30] was 315. It also gave an MFI relative to background [31] of 483, an MFI relative to background [32] of 546 and an MFI [33] of 80.1. The MFI relative to background [34] was 543, the MFI [35] was 457 and the MFI relative to background [36] was 417. For the same substance, the MFI [37] was 243, the MFI relative to background [38] was 965 and the MFI relative to background [39] was 430.
